Assay results published in the Human Domainome abundance scans (Beltran et al. 2025).
± gives the uncertainty stated by the source.

B1: Tumor protein p73, residues 487 to 549; numbered along this chain, O15350 (parent)
chain: YHADPSLVSFLTGLGCPNCIEYFTSQGLQSIYHLQNLTIEDLGALKIPEQYRMTIWRGLQDLK

Variants of: B1
Experiment: abundance fitness (aPCA) (normalised: wild type 0, dead -1); higher = more abundant; growth selection in yeast, the domain comes from the species named
Conditions: Homo sapiens
For S6A, the abundance fitness was 0.041 ± 0.052.
With S6R the abundance fitness was 0.013 ± 0.035.
S6C gave an abundance fitness of 0.036 ± 0.067.
For S6F, the abundance fitness was -0.095 ± 0.072.
Variant I55E has an abundance fitness of -0.869 ± 0.14.
With E40A the abundance fitness was 0.007 ± 0.048.
Work on E40V yielded an abundance fitness of -0.097 ± 0.049.
Variant E40C has an abundance fitness of 0.033 ± 0.093.
For L14T, the abundance fitness was -0.307 ± 0.066.
With L14A the abundance fitness was -0.193 ± 0.042.
G13N showed an abundance fitness of 0.216 ± 0.22.
G13Q gave an abundance fitness of 0.024 ± 0.047.
G13V showed an abundance fitness of -0.223 ± 0.054.
G13S gave an abundance fitness of 0.034 ± 0.038.
For K46R, the abundance fitness was 0.041 ± 0.03.
L59T showed an abundance fitness of -0.157 ± 0.05.
In the case of L59N, the abundance fitness is reported as -0.631 ± 0.13.
L59V showed an abundance fitness of 0.046 ± 0.056.
With G15T the abundance fitness was -0.549 ± 0.055.
Variant G15I has an abundance fitness of -0.937 ± 0.27.
Work on H33I yielded an abundance fitness of -0.216 ± 0.072.
For H33D, the abundance fitness was -0.017 ± 0.1.
H33C gave an abundance fitness of -0.051 ± 0.061.
Work on T24H yielded an abundance fitness of -0.123 ± 0.12.
Work on T24E yielded an abundance fitness of -0.108 ± 0.037.
In the case of T24S, the abundance fitness is reported as -0.007 ± 0.042.
For A3D, the abundance fitness was 0.08 ± 0.17.
For A3L, the abundance fitness was 0.311 ± 0.042.
With A3N the abundance fitness was 0.024 ± 0.16.
A3P gave an abundance fitness of 0.361 ± 0.099.
E49H gave an abundance fitness of -0.047 ± 0.051.
With E49V the abundance fitness was 0.009 ± 0.033.
Variant E49G has an abundance fitness of -0.123 ± 0.034.
In the case of E49C, the abundance fitness is reported as -0.061 ± 0.052.
In the case of E49F, the abundance fitness is reported as -0.355 ± 0.23.
In the case of V8P, the abundance fitness is reported as 0 ± 0.064.
For V8T, the abundance fitness was 0.117 ± 0.046.
Variant V8H has an abundance fitness of -0.024 ± 0.079.
V8A gave an abundance fitness of 0.106 ± 0.061.
Work on V8I yielded an abundance fitness of -0.053 ± 0.05.
With K63S the abundance fitness was 0 ± 0.058.
For K63N, the abundance fitness was -0.245 ± 0.3.
For K63T, the abundance fitness was 0.172 ± 0.14.
For S9G, the abundance fitness was 0.103 ± 0.028.
Work on S9K yielded an abundance fitness of -0.017 ± 0.042.
Work on S9N yielded an abundance fitness of 0.086 ± 0.074.
S9I showed an abundance fitness of -0.347 ± 0.13.
Variant S9A has an abundance fitness of -0.101 ± 0.043.
S9E showed an abundance fitness of -0.019 ± 0.04.
In the case of I20M, the abundance fitness is reported as 0.003 ± 0.038.
I20K gave an abundance fitness of -0.185 ± 0.05.
Variant I20C has an abundance fitness of -0.074 ± 0.038.
Variant I20L has an abundance fitness of 0.038 ± 0.031.
T12R showed an abundance fitness of 0.058 ± 0.028.
T12Q showed an abundance fitness of 0.031 ± 0.045.
In the case of T12S, the abundance fitness is reported as -0.05 ± 0.042.
Work on T38C yielded an abundance fitness of -0.073 ± 0.073.
For T38A, the abundance fitness was -0.014 ± 0.038.
Work on Y22L yielded an abundance fitness of 0.009 ± 0.03.
Y22F gave an abundance fitness of 0.002 ± 0.081.
With Q60F the abundance fitness was -0.096 ± 0.071.
Work on Q60D yielded an abundance fitness of -0.01 ± 0.058.
Variant H2Q has an abundance fitness of 0.345 ± 0.058.
Variant H2R has an abundance fitness of 0.148 ± 0.037.
Work on N36W yielded an abundance fitness of -0.078 ± 0.046.
For N36V, the abundance fitness was -0.025 ± 0.035.
N36Q gave an abundance fitness of 0.022 ± 0.038.
Variant G43S has an abundance fitness of -0.013 ± 0.05.
L28D showed an abundance fitness of -0.261 ± 0.081.
L28Y showed an abundance fitness of -0.058 ± 0.051.
With I31W the abundance fitness was -0.025 ± 0.038.
For I31F, the abundance fitness was -0.294 ± 0.21.
I31D showed an abundance fitness of -0.269 ± 0.068.
C19Y showed an abundance fitness of -0.233 ± 0.1.
With C19V the abundance fitness was 0.052 ± 0.036.
C19L showed an abundance fitness of 0.047 ± 0.035.
For Q26L, the abundance fitness was -0.199 ± 0.04.
For Q26K, the abundance fitness was 0.032 ± 0.048.
Q26I gave an abundance fitness of -0.163 ± 0.33.
In the case of Q26A, the abundance fitness is reported as 0.079 ± 0.037.
For Q26D, the abundance fitness was -0.2 ± 0.086.
L11I gave an abundance fitness of 0.039 ± 0.071.
In the case of L11Y, the abundance fitness is reported as -0.518 ± 0.1.
For E21W, the abundance fitness was -0.087 ± 0.063.
E21A gave an abundance fitness of -0.051 ± 0.04.
Variant E21D has an abundance fitness of 0.012 ± 0.065.
Work on E21S yielded an abundance fitness of -0.003 ± 0.044.
In the case of E21G, the abundance fitness is reported as 0.034 ± 0.035.
G27A showed an abundance fitness of -0.304 ± 0.075.
G27C showed an abundance fitness of -0.448 ± 0.059.
G27K gave an abundance fitness of -0.089 ± 0.043.
For G27F, the abundance fitness was -1 ± 0.22.
A44P showed an abundance fitness of -0.041 ± 0.062.
A44W gave an abundance fitness of -0.083 ± 0.038.
For A44M, the abundance fitness was 0.006 ± 0.05.
Work on A44E yielded an abundance fitness of 0.16 ± 0.055.
In the case of L42N, the abundance fitness is reported as -0.858 ± 0.13.
For F23E, the abundance fitness was -1.05 ± 0.15.
F23P gave an abundance fitness of -0.907 ± 0.16.
Work on Y51L yielded an abundance fitness of -0.116 ± 0.058.
Y51S gave an abundance fitness of -0.126 ± 0.055.
For Y51V, the abundance fitness was -0.06 ± 0.062.
Variant F10L has an abundance fitness of -0.307 ± 0.038.
For F10A, the abundance fitness was -0.535 ± 0.069.
Variant F10C has an abundance fitness of -0.588 ± 0.14.
Variant P5Q has an abundance fitness of -0.005 ± 0.055.
With P5A the abundance fitness was 0.11 ± 0.063.
P5C gave an abundance fitness of 0.167 ± 0.11.
Variant P5R has an abundance fitness of 0.085 ± 0.033.
Work on P5M yielded an abundance fitness of 0.334 ± 0.038.
P5K gave an abundance fitness of 0.238 ± 0.036.
In the case of L45A, the abundance fitness is reported as -0.18 ± 0.042.
For Y1M, the abundance fitness was 0.18 ± 0.063.
Variant Y1K has an abundance fitness of -0.153 ± 0.073.
In the case of Y1Q, the abundance fitness is reported as -0.195 ± 0.093.
In the case of Y1A, the abundance fitness is reported as 0.003 ± 0.28.
Variant Y32W has an abundance fitness of -0.001 ± 0.043.
Variant S25I has an abundance fitness of -0.195 ± 0.054.
S25F showed an abundance fitness of -0.197 ± 0.069.
C16K gave an abundance fitness of -0.322 ± 0.062.
C16D gave an abundance fitness of -0.923 ± 0.23.
Variant C16H has an abundance fitness of -0.047 ± 0.054.
C16E showed an abundance fitness of -0.8 ± 0.2.
For Q50I, the abundance fitness was -0.192 ± 0.15.
Q50S showed an abundance fitness of 0.045 ± 0.034.
In the case of Q50T, the abundance fitness is reported as -0.034 ± 0.05.
Q50Y gave an abundance fitness of -0.297 ± 0.086.
For Q50R, the abundance fitness was 0.051 ± 0.034.
Variant Q35Y has an abundance fitness of 0.031 ± 0.057.
Q35N showed an abundance fitness of 0.192 ± 0.071.
With G58A the abundance fitness was 0.038 ± 0.045.
With G58Y the abundance fitness was -0.723 ± 0.28.
Work on G58P yielded an abundance fitness of -0.433 ± 0.075.
In the case of P17S, the abundance fitness is reported as 0.015 ± 0.031.
P48K gave an abundance fitness of -0.212 ± 0.043.
In the case of D61Y, the abundance fitness is reported as -0.157 ± 0.1.
With W56D the abundance fitness was -0.241 ± 0.056.
In the case of W56A, the abundance fitness is reported as 0.014 ± 0.037.
Variant W56C has an abundance fitness of -0.124 ± 0.11.
Variant R57C has an abundance fitness of -0.192 ± 0.12.
For R57D, the abundance fitness was 0.011 ± 0.26.
Variant R57E has an abundance fitness of -0.058 ± 0.057.
In the case of R57V, the abundance fitness is reported as -0.255 ± 0.051.
Variant R57P has an abundance fitness of -0.625 ± 0.11.
R57Q showed an abundance fitness of -0.036 ± 0.042.
R57Y showed an abundance fitness of -0.023 ± 0.056.
In the case of L62A, the abundance fitness is reported as -0.104 ± 0.045.
Variant D41I has an abundance fitness of -0.9 ± 0.26.
With D41T the abundance fitness was -0.159 ± 0.053.
D41V showed an abundance fitness of -0.644 ± 0.056.
I47L showed an abundance fitness of 0.021 ± 0.033.
Work on I47N yielded an abundance fitness of -0.413 ± 0.15.
With T54E the abundance fitness was -0.061 ± 0.07.
R52H gave an abundance fitness of 0.054 ± 0.061.
Work on R52D yielded an abundance fitness of -0.425 ± 0.47.
In the case of R52F, the abundance fitness is reported as -0.53 ± 0.42.
With R52E the abundance fitness was -0.075 ± 0.051.
S30M showed an abundance fitness of -0.094 ± 0.22.
For S30K, the abundance fitness was -0.03 ± 0.083.
S30R gave an abundance fitness of -0.043 ± 0.025.
In the case of L37G, the abundance fitness is reported as -0.536 ± 0.044.
L37Q showed an abundance fitness of -0.41 ± 0.13.
Variant L37N has an abundance fitness of -0.426 ± 0.21.
L37I showed an abundance fitness of -0.058 ± 0.071.
N18V gave an abundance fitness of -0.055 ± 0.043.
For N18D, the abundance fitness was 0.049 ± 0.067.
Work on N18H yielded an abundance fitness of 0.04 ± 0.082.
